This data set can be described thus: label from the status in PepcDB records.
As for “MTTVDSPRDANGPPRFAASGFATPRRPDDTDDTGDADETAATVPHRTRALTTPPRRKTIAAPCIDARTRRDRPARRATHARRALADFRAPAPPVARGTTRNRARRYACPSVDAVARTAPSPHAHRAAPARRPPSSEGAIMSEAVRMERDTFGEIAVPAARLWGAQTQRSLQNFKISTEKQSPELIHALALIKRAAAAVNLELGVLAQDKANAIVAAADEIIAGRHADEFPLAVWQTGSGTQTNMNLNEVIANRASELLGGERGESRAVHPNDDVNRGQSSNDVFPTAMHIAAARAIVDHLLPALRTLRATLDAKAAAFADIVKIGRTHLQDATPLTLGQEFSGYVAQLDQGIRHVEAALPHLYELAQGGTAVGTGLNAHPKFAAGVAAEIGRLTGLPFVSAPNKFEVMAAADALVFAHGALKTVAASLMKIANDIRWLASGPRCGLGELSIPENEPGSSIMPGKVNPTQSEAVTMLCCQVFGNDVAVNFGGASGNFELNVFRPMIAHNVLQSVRLLADGAQGFNDHCAVGIEPNRARIDALLNESLMLVTALNPHIGYDKAAQIAKKAHKEGTTLKAAALALGYVTDAQFDEWVRPEHMVGNR”, the protein production entry is “not failed”.
With “MYELVSPVNPLAVLRYIGHLLLVFSAVLLVPVLAAFVLGETDAAVIYGSSALVTAGTGFLLQKVLPDFELEIKEALILAALTFPLCSLVSAVPMAFSTGMPFLDAYFECVSGLTTTGLSLAPPSPTRLFFFTRSWLQWIGGIGIIVLVLGILIRPGTTAFRLYRVNFGESRIRPSVITTARTLGTVYLVLTLLSLLLLLFSGMPFYDAVCHTLSSISTGGFSTQAGSIGAYGGFLIPFLITVSCIMGAISFSLYPEVLKEPGTLIRDPQVRYLFGLSLLGTALFVLTLSGGEGGPELFHMMPDAVFQVVSALTGTGFSTIDLAPLSDASKGFLSAIMCIGGSIGSTTGGIKLFRLIVIVQLIKLVFYRFFLPREAITPLKVKSQVVDPDDFYRIMTYVLLYLAVLVFSAFIFMFYGINSADAIFETSSALATAGLSTGVTTPGMPSLLKLVLCADMLLGRVEIVPLFILLLPRTWFEINRNTGEKRSSKDTA” the entry was “failed”.
Turning to “MSDVYNNEAFFKQYMKRRYRENSPNELIEKPAFFQLIGDVKGKKILDLGCGDAIFGKELLEKDCHSYTGIEGSELMYEKAKKQLENKNGIVHFLNLKDYTYPPATFDLVTSRLALHYIEHLPIIFQNVYETLKTNGTFTFSVQHPVITSSFESLQTSGKRTSWLVDDYFKTGKRVEPWIDQKVIKYHRTTEEYFTLLQQAGFTITNLKEATPNQTYFQSAEEYERRLRIPLFLLFSCRKLEHHHHHH”, the protein production entry was “failed”.
As to “MKRFAFRVILHILLIVLFSIGSYLLFQKQLWFSTTICLILLITIGIHLYRMQFKQIALLRRLTDGLRYNDMMQTFHPPFNNKIMNEWAEELSDTLKDFRGRLLAEEIKHQYYENLLNKVDTAVLVADKAGHIEWMNQAAVTHLGQISQLPETLLKASVAHDTPVIRIEQNSTVLEMAISRTTFATQGREQQLISLKNIHSVLERNEMEAWQKLIRVLTHEIMNSITPIISLSETLSERGIPSQLGEKEYSVMLQAMQTIHRRSKGLLEFVENYRRLTRIPAPIRTQISIAELFTDLKKLFPEEEFQFEVPSPELKLNVDRTQIEQILINLLKNAREACSRKSDKKIQVKARKLSAGNTTLTISDNGEGILPDVLDKIFVPFFTTKTSGSGIGLSLCKQIMTLHEGSINVKSEVGKGSSFILTFPK”, the protein production entry is given as “failed”.
As for “MTSFLSFSAISAHPPTFSGASFRPRSFSPRLFKSCVKCTYAEAGLSSASWSAPIDIVADVKSERVVVLGGNGFVGSAICKAAISNGIEVVSVSRSGRPNFEDSWLDQVTWVTGDVFYLNWDEVLLGATAVVSTIGGFGNEEQMKRINGEANVTAVNAAKDFGVPKFVLITVHDYNLPPFILSNGYFTGKRNAEAELLSKYPTSGVVLRPGFIYGKRKVNGIEVPLDLVGEPLDKIYDSAERFIRPLRSLPASDLILAPPVNVDDLALAVINAVKDDDFFGIFTIEQIKEAAAKMRA”, the protein production result is “failed”.
With “MEYHLRTKLNGNIAMTSCFHENSFLQCDRSLYKFIWVRHGALDVEVDHVVMHLEKEEMISLTPLHHVQIRGVDGEYLTFLFNSNFYCIYGHDSEVSCNGFLFNGSSRVMRLKLSPSQSARLDSIVDIFRGECGIQDNLQEEMLRIILKRFIITCTRIAREKFDVDPGRENMFDVIRQFYVLVDSHFKEKKQVQDYADMLCRSPKTISNLFSLYGLSSPLRVIHERVDAEAKRLLLYTGKSAKEISEILGFEDLATFSRFFKKMNKESLSEYRKREKRE” the entry was “not failed”; with “MTLSSTTAPLDQPIPQATADAFCALTGDDQWIHIDPARAEAEGLAGGDTVLPGALLLSLAVGGLGKALGYPEGTRSWQRSYERVRFLRPAPVGSRLRLEARESRRRPAGTGREVVVANVSLYSDLVEAGPVMEGCFTSLLEVAVQPDTAE”, “failed”; with “TGNVCIEEIDVDGKFIRLKNTSEQDQPMGGWEMIRKIGDTSVSYKYTSRYVLKAGQTVTIWAANAGVTASPPTDLIWKNQNSWGTGEDVKVILKNSQGEEVAQRSTVFKTTIP”, “failed”.
Next, “MKERIVGQSGELFCFGQMPVWKVENLPEVLLSGYSSEEGEWVCLNVLQGDVEVRAPDGSAEVWSADGGDCVFAPQQVFSVKPKTDDAEIRLSLYCAAADYFHKKYGMSATHSAVAAARDTVPAGRALDMGCGQGRNALFLGLKGFEVTAVDHNPAALANVAELAEAEGLNVRTLEYDLNAAALQGEFDYIVATVVLMFLMPQRVPDVIADMQAHTAAGGYNLIVSAMDTADFPCPMPFPFKFKEGELKDYYRDWELVEYKEELGSMHAKDENGNPIRFKFVTMLAKKPELEHHHHHH”: “failed”; “MTDKTSLSYKDAGVDIDAGNALVGRIKGVVKKTRRPEVMGGLGGFGALCALPQKYREPVLVSGTDGVGTKLRLAMDLKRHDTIGIDLVAMCVNDLVVQGAEPLFFLDYYATGKLDVDTASAVISGIAEGCLQSGCSLVGGETAEMPGMYHGEDYDVAGFCVGVVEKSEIIDGSKVSDGDVLIALGSSGPHSNGYSLVRKILEVSGCDPQTTELDGKPLADHLLAPTRIYVKSVLELIEKVDVHAIAHLTGGGFWENIPRVLPDNTQAVIDESSWQWPEVFNWLQTAGNVEHHEMYRTFNCGVGMIIALPAPEVDKALALLNANGENAWKIGIIKASDSEQRVVIE”: “not failed”.
With “MKSLGRHLVAEFYECDREVLDNVQLIEQEMKQAAYESGATIVTSTFHRFLPYGVSGVVVISESHLTIHTWPEYGYAAIDLFTCGEDVDPWKAFEHLKKALKAKRVHVVEHERGRYDEIGIPEDSPHKAAV” the entry was “not failed”; with “MKVCLQCENFFSSADWACPSCGYQPERLNGIEAHASEFAHGGGGFKPEYFSELSRLEAGNFWFRARNELILWALRTYKPNAGAFLEVGCGTGFVLSGIARACPEIALNGSEIFLAGLFHAAKRVPSTHFMQMDARRVPFVEEFDAIGAFDVLEHIEEDETVLAQLHNAIKPSGVLLLTVPQHPRLWSASDDYACHVRRYTRVEIEQKVLTAGFELLRSSSFVTSLLPVMMLSRVLQKRKTKDFDPAGELKINAALNKVFYGLMMLELAGIRLGMNYPVGGSRLVVAKKQSALEHHHHHH”, “not failed”.
Take “MDKLKVAELFAGVGGFRLGLENTKEKIFDVTWANQWEPSKKIQHAFDCYNSRFITGEHVNKDIALISDEEIANTKADMVVGGFPCQDYSVARSLSGELGIQGKKGVLFWQIIRFIQNTYPKYLLLENVDRLLKSPSSQRGRDFGVMLSTLNELGYNVEWRVINAADYGNAQRRRRVFIFGYKQDLNYADLIDKYSLEDIVYNSGMFAKAFPIEKEPNKNRVNSSTITNDIVDISNNFSFQFYNSGIMKNGEILTIDTIPIFEKPTPLKEIVLKEVDDKYSLADEKIEKFKYLRGPKKIKRTSKDGHEYYFSEGGMSEFDSLDLPARTMLTSEASVNRSSHFLSIGGKFRTLTPIEAERLNGFPDNWTDTMPDRMRYFCMGNALVVPLVTRIGNQIEKIEKITNDDFSQLKLF”: the protein production entry is “failed”.
Next, “MSINISELLQPITEQSPCGEDYSFSNEFHLIKKARTQDDVLLDQGDWVTELKQADWETVTSTSSNLLKTKTKDIRLLTWLSEGWANLYGFEGIYQGIELSHRLLDQFWNDIHPVVEDDDLDQRIALLQGLINQLPLLIKKTPLINTSPYYHLLNYENFLHHQNIRRKQSDEYEQLDGPSEIELFEQALFNTSKSFQYQNYQMFKHVVSQWQQLKDVLDRLMGVDAPSFAAIDSSLQDIDVNLRKIYKAEAFDTNPVATSSATASSHASETLSTEPMPTSNVNVNQPSFQPQTQNHIQNREQAIRVLQDISDYFQANEPHSPVSYMLQKTIKWSQMPLHEWLAQVIKDEHPLQLVQEALGVQPKNEYE”: “failed”; “LSEVEFVEFQKENFSLLIDARSPREFLHSHLIGALNFYALNDEEYQEIGTIYKKNQALAKAMGASYICQNTTKHILEITQNFRIGEKVGIYCSRGGLRSKSIAVILSELGFRVVRLKGGFKAYRTFVTHYFEN”: “failed”; “VHVLIRPLQAQDREREKAFIERLSPESRHFRFLCQLREPGEAMLDQLMKVDQDRQAAYVALAHVDGELQEVGISRYATASGKDECECAVTVMDSWQHHGLGRLLLKHLIDHARAKGLRQMYSVDAAANQAMRELAKAAGFTT”: “failed”.
Next, “MEEGGDFDNYYGADNQSECEYTDWKSSGALIPAIYMLVFLLGTTGNGLVLWTVFRSSREKRRSADIFIASLAVADLTFVVTLPLWATYTYRDYDWPFGTFFCKLSSYLIFVNMYASVFCLTGLSFDRYLAIVRPVANARLRLRVSGAVATAVLWVLAALLAMPVMVLRTTGDLENTTKVQCYMDYSMVATVSSEWAWEVGLGVSSTTVGFVVPFTIMLTCYFFIAQTIAGHFRKERIEGLRKRRRLLSIIVVLVVTFALCWMPYHLVKTLYMLGSLLHWPCDFDLFLMNIFPYCTCISYVNSCLNPFLYAFFDPRFRQACTSMLCCGQSRCAGTSHSSSGEKSASYSSGHSQGPGPNMGKGGEQMHEKSIPYSQETLVVD”: “not failed”; “MKALASRGTRNHLAGEAAENSVLRDYERRGYHLVRRRWRGRCGEIDLIARSGDEVVFVEVKQSRDFARAAESLGARQMKRLHAAAAEFLAEEPDGQLTPMRFDVALVDGTGRLEIVENAFGHG”: “failed”; “MKALTVNKTIFILVIAASLLLGAAVGYIAHSLTAGGGGVVVTGSKAVSTGTSIGVYLTIKNNTNTTSCIVGADIAESVSGKVVVDIHKTVEEGGRVVMMPAGPICLGPGETLEMRQGPGSYHVMIMGDRSAIEKITEDGVVEIKVLVEQQVDAPITGP”: “failed”.
With “MEISRGDFEQAYQNERNRMQAQLGDYFSNLLADPTYVASFRKSVLDRMVNDLLLEQHAASLGLRVSDEQVRQLILEIPQFQSQGVFDSTAYQATLRRAGFTPEMYAEYLRKDLVRNQLMSALQGSEFSLAGEVNLQDQLISQTRDIRTITLSLEDFAKKVTLSDEEIDQYYKTNTERFTRPEQVKVSYVELSADGLKAQVSVDDAAAQQYYQEHLDKYSTAEQRNVSHILIEGNDEQKAQAILDELNAGADFATLAKEKSQDLGSAAEGGSLGWIEPDTMDPAFEAAAFALTEKGQVSGLVKSDFGYHIIRLDDIKAPVVKPYSEVEQAIKQELIDQQALDSFYAKQSELEKMAFEHSDSLDEAAKAISATVVHTDFISAEQAPEVLTTPAVLQALKSPEVKEDGLNSEVIEVAPEHVVVVRVEEFRPETVLPLDEVKSQVVEQLSRMKGEQQALELGNQLVTALKAGETDLLAQKGVSFGELQMIDRSSPLANTVYAMVKPQEGEKVYAQAKDFDGNIVVIELSKVESKLTPAYHEQIATQLERIGSQQDLAGVISVLRQNTDIEYHIATELEHHHHHH” the entry was “not failed”.
Consider “NMTISDIQHAPDYALLSNDEQQLCIQLKILPKPYLVLKEVMFRELLKTGGNLSKSACRELLNIDPIKANRIYDFFQSQNWM”, for which the protein production entry is listed as “not failed”.

The values above are taken from a protein production outcome set (Wang et al. 2014).
